1 molecule from article PMC5117957 (Journal of immunology (Baltimore, Md. : 1950), 2016) can be followed below.

This test concerns the target gp120 (derived from isolate YU2) (HIV-1 isolate YU2, UniProt P35961). Put plainly: ELISA.

B1: CD4bs MAb F105 (antibody, V domains shown)
VH: QVQLQESGPGLVKPSETLSLTCTVSGGSISSHYWSWIRQSPGKGLQWIGYIYYSGSTNYSPSLKSRVTISVETAKNQFSLKLTSMTAADTAVYYCARGPVPAVFYGDYRLDPWGQGTLVTVSS
VL: EIVLTQSPGTLSLSAGERATLSCRASQSVSSRYLAWYQQKPGQAPRLLIYGASSRATGIPDRFSGSGSGTDFTLTISRVEPEDFAVYYCQQYDNSVCTFGQGTKLEIK
As for B1, the binding result was “binds”.
